Columns and labels:
Assay in all cases: pull-down; GST-fusion protein (20 pmol) immobilised on glutathione Sepharose 4B beads; incubated with 1 ml of 3.5 uM Nek7 protein for 2 hr; PD buffer (20 mM HEPES pH 7.5, 150 mM NaCl, 0.05% Tween 20); three 30 min washes at 4°C; anti-His6 immunoblot
Settings in all cases: both partners purified
[1] = target: T1, Nek7, wild-type, full-length human protein with C-terminal His6 tag (human, UniProt Q8TDX7 1-302)
T1 construct: Nek7 (NIMA-related kinase 7), human, full-length (35 kDa), cloned into pET30; The His6 tag is uncleavable; also called Nek7-WT; WT; source: E. coli Codonplus RPIL, coexpressed with lambda phosphatase, purified (HisTRAP, then dialysis or gel filtration); not shown: His6, C-terminal, kept
T1 sequence (Q8TDX7 whole entry): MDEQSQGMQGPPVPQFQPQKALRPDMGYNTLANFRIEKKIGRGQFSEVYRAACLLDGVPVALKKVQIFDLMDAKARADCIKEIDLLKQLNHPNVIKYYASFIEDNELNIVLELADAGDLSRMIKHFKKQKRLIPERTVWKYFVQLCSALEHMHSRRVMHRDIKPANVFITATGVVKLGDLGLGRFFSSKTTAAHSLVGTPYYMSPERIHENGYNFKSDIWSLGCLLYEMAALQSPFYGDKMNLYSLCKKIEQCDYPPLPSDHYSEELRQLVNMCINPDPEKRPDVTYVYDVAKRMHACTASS

Nek7-Y28A/L31A = target: T2, Nek7-Y28A/L31A (human, UniProt Q8TDX7 1-302, Y28A | L31A)
T2 construct: Nek7, human, double point mutant of the full-length His6 construct (QuikChange); also called YA/LA; source: bacterially expressed and purified; not shown: His6, C-terminal, kept
T2 sequence (Q8TDX7 whole entry Y28A/L31A): as the sequence (Q8TDX7 whole entry) above, with Y28A, L31A counted along it

[2] = target: T3, Nek7-Δ20, N-terminal truncation of Nek7 starting at residue 20 (human, UniProt Q8TDX7 20-302)
T3 construct: Nek7, human, truncation starting at residue 20; source: bacterially expressed and purified
T3 sequence (Q8TDX7 20-302, stated change not applied): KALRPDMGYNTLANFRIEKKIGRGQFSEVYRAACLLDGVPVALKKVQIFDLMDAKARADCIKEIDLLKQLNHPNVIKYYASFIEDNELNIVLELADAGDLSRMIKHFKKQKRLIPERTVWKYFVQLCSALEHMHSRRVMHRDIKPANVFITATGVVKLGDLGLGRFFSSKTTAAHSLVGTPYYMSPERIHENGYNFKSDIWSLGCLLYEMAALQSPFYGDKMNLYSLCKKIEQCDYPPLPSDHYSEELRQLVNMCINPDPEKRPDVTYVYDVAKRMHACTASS

Nek7-N33D = target: T4, Nek7-N33D (human, UniProt Q8TDX7 1-302, N33D)
T4 construct: Nek7, human, point mutant of the full-length His6 construct (QuikChange); also called ND; source: bacterially expressed and purified; not shown: His6, C-terminal, kept
T4 sequence (Q8TDX7 whole entry N33D): as the sequence (Q8TDX7 whole entry) above, with N33D counted along it

[3] = target: T5, Nek7-Δ30, N-terminal truncation of Nek7 starting at residue 30 (human, UniProt Q8TDX7 30-302)
T5 construct: Nek7, human, truncation starting at residue 30; source: bacterially expressed and purified
T5 sequence (Q8TDX7 30-302, stated change not applied): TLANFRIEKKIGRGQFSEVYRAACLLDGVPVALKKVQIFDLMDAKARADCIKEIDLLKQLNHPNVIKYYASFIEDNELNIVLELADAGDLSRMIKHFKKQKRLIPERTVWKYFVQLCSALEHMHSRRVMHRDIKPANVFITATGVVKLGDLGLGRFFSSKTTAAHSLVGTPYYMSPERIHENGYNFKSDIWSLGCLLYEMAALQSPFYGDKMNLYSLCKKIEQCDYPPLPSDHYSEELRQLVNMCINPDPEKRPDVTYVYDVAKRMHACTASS

binding result [1]: binds
binding result (Nek7-Y28A/L31A): binds
binding result [2]: binds
binding result (Nek7-N33D): binds
binding result [3]: binds
B1: GST-tagged C-terminal domain of human Nek9 (amino acids 706-960) (domain or fragment, UniProt Q8TD19 706-960, looked up)
chain: SLHHVPDLSCRGWHTILIVEKVLNSKTIRSNSSGLSIGTVFQSSSPGGGGGGGGGEEEDSQQESETPDPSGGFRGTMEADRGMEGLISPTEAMGNSNGASSSCPGWLRKELENAEFIPMPDSPSPLSAAFSESEKDTLPYEELQGLKVASEAPLEHKPQVEASSPRLNPAVTCAGKGTPLTPPACACSSLQVEVERLQGLVLKCLAEQQKLQQENLQIFTQLQKLNKKLEGGQQVGMHSKGTQTAKEEMEMDPKP
notes: Nek9, human, noncatalytic C-terminal domain (CTD), amino acids 706-960, cloned into pGEX-4T1; pGEX-4T1 normally places GST at the N-terminus; also called Nek9-CTD; GST-Nek9-CTD; source: E. coli Rosetta DE3, purified (glutathione Sepharose)
